This is an account of results in US20220283173A1.

For assay [1], the target named is Anti-Mx1-AF488. Briefly: competitive TR-FRET; unlabelled MxA at 0.024 (unit µ/mL [sic]) displacing Mx1-L4 from Anti-Mx1-AF488.
For assay [2], the target named is Anti-Mx1-AF488. Briefly: competitive TR-FRET; unlabelled MxA at 0.098 (unit µ/mL [sic]) displacing Mx1-L4 from Anti-Mx1-AF488. (In TR-FRET formats the signal depends on donor and acceptor labels being close together.)
Assay [3] has as its target Anti-Mx1-AF488. Briefly: competitive TR-FRET; unlabelled MxA at 6.250 (unit µ/mL [sic]) displacing Mx1-L4 from Anti-Mx1-AF488.
Assay [4] has as its target Anti-Mx1-AF488. As to the kind of experiment: competitive TR-FRET; unlabelled MxA at 25.000 (unit µ/mL [sic]) displacing Mx1-L4 from Anti-Mx1-AF488.
For assay [5], the target named is Anti-Mx1-AF488. As to the kind of experiment: competitive TR-FRET; unlabelled MxA at 0.391 (unit µ/mL [sic]) displacing Mx1-L4 from Anti-Mx1-AF488.
Assay [6] has as its target Anti-Mx1-AF488. As to the kind of experiment: competitive TR-FRET; unlabelled MxA at 0.006 (unit µ/mL [sic]) displacing Mx1-L4 from Anti-Mx1-AF488.
The target in assay [7] is Anti-Mx1-AF488. As to the kind of experiment: competitive TR-FRET; unlabelled MxA at 0.000 (no competitor, the reference R0) with Mx1-L4 and Anti-Mx1-AF488.
The target in assay [8] is Anti-Mx1-AF488. Briefly: competitive TR-FRET; unlabelled MxA at 1.563 (unit µ/mL [sic]) displacing Mx1-L4 from Anti-Mx1-AF488.

B1: Human myxovirus resistance protein A (MxA), unlabelled standard (protein)
chain: MVVSEVDIAKADPAAASHPLLLNGDATVAQKNPGSVAENNLCSQYEEKVRPCIDLIDSLRALGVEQDLALPAIAVIGDQSSGKSSVLEALSGVALPRGSGIVTRCPLVLKLKKLVNEDKWRGKVSYQDYEIEISDASEVEKEINKAQNAIAGEGMGISHELITLEISSRDVPDLTLIDLPGITRVAVGNQPADIGYKIKTLIKKYIQRQETISLVVVPSNVDIATTEALSMAQEVDPEGDRTIGILTKPDLVDKGTEDKVVDVVRNLVFHLKKGYMIVKCRGQQEIQDQLSLSEALQREKIFFENHPYFRDLLEEGKATVPCLAEKLTSELITHICKSLPLLENQIKETHQRITEELQKYGVDIPEDENEKMFFLIDKVNAFNQDITALMQGEETVGEEDIRLFTRLRHEFHKWSTIIENNFQEGHKILSRKIQKFENQYRGRELPGFVNYRTFETIVKQQIKALEEPAVDMLHTVTDMVRLAFTDVSIKNFEEFFNLHRTAKSKIEDIRAEQEREGEKLIRLHFQMEQIVYCQDQVYRGALQKVREKELEEEKKKKSWDFGAFQSSSATDSSMEEIFQHLMAYHQEASKRISSHIPLIIQFFMLQTYGQQLQKAMLQLLQDKDTYSWLLKERSDTSDKRKFLKERLARLTQARRRLAQFPG
As for B1, the R/R0 with Anti-Mx1-AF488 [1] was found to be 0.99; in the assay with Anti-Mx1-AF488 [2] it was 0.97; with Anti-Mx1-AF488 [3] it was 0.43; with Anti-Mx1-AF488 [4], 0.32; with Anti-Mx1-AF488 [5], 0.89; with Anti-Mx1-AF488 [6] it was 0.94. Moreover, the R/R0 with Anti-Mx1-AF488 [7] was found to be 1; with Anti-Mx1-AF488 [8], 0.72.
